This is an account of results in PMC8455438 (Molecular cell, 2021).

Where a chain is given by its changes, count along the chain named. In names and notes the source's numbering stands. Read-outs that look alike come from different tables or passages of the source.

Data set [1] addresses T1, Recombinant IDH2 (R140Q) protein (ACTIVE MOTIF) (human, UniProt P48735 40-452, R140Q).
T1 sequence (looked up): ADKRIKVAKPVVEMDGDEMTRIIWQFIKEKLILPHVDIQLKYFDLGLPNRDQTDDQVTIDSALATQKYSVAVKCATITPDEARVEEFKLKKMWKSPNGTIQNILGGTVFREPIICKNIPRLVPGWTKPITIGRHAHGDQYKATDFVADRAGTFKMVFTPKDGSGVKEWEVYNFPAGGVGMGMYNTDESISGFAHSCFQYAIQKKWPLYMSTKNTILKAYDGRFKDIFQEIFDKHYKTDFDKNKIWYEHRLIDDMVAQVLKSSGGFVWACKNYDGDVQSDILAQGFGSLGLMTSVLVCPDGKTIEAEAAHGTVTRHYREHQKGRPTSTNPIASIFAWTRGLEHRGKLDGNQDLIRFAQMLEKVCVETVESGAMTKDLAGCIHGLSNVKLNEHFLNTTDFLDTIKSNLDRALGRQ
Kind of data set: co-IP.

Data set [2] concerns the molecule itself. The data set can be described thus: native gel or EMSA. In general terms: Mobility shift assays separate free from complexed probe on a gel.
Data set [3] concerns the molecule itself. Kind of data set: native gel or EMSA. The source holds these as a separate data set.

B1: recombinant ACAT1 (mitochondrial acetyl-coA acetyltransferase), wild type (enzyme, UniProt P24752 34-427, looked up)
chain: VSKPTLKEVVIVSATRTPIGSFLGSLSLLPATKLGSIAIQGAIEKAGIPKEEVKEAYMGNVLQGGEGQAPTRQAVLGAGLPISTPCTTINKVCASGMKAIMMASQSLMCGHQDVMVAGGMESMSNVPYVMNRGSTPYGGVKLEDLIVKDGLTDVYNKIHMGSCAENTAKKLNIARNEQDAYAINSYTRSKAAWEAGKFGNEVIPVTVTVKGQPDVVVKEDEEYKRVDFSKVPKLKTVFQKENGTVTAANASTLNDGAAALVLMTADAAKRLNVTPLARIVAFADAAVEPIDFPIAPVYAASMVLKDVGLKKEDIAMWEVNEAFSLVVLANIKMLEIDPQKVNINGGAVSLGHPIGMSGARIVGHLTHALKQGEYGLASICNGGGGASAMLIQKL
For B1, the binding result in data set [1] was “binds”.

B2: recombinant ACAT1 treated with rFLT3 (Y407-phosphorylated) (enzyme, UniProt P24752 34-427, looked up)
chain: B1 chain
modifications: phosphotyrosine at Y407 (by rFLT3)
Regarding B2, in data set [1], the binding result is “binds”.

B3: recombinant ACAT1 Y407F (phosphor-deficient mutant) (enzyme, UniProt P24752 34-427, looked up)
chain: B1 chain with Y374F
On to B3, for which the binding result in data set [1] is listed as “binds”.

B4: 6xHis-IDH2 R140Q-FLAG, K413 not acetylated (pre-treated with cobB protein deacetylase, or deacetylated by rSIRT3) (enzyme, human, UniProt P48735 40-452, looked up)
chain: T1 sequence (looked up)
Usually stoichiometry N stands for a count of units in the complex or per binding partner. In the case of B4, the “stoichiometry N” value in the data set “native gel or EMSA [2]” amounted to 2.

B5: 6xHis-IDH2 R140Q-FLAG, K413-acetylated (by rACAT1 after cobB pre-treatment, or with intrinsic lysine acetylation obtained in bacteria) (enzyme, human, UniProt P48735 40-452, looked up)
chain: T1 sequence (looked up)
modifications: acetyl-lysine at K413 (rACAT1 acetylates mutant IDH2 at multiple lysine sites; intrinsic lysine acetylation obtained in bacteria)
For the molecule B5, the “stoichiometry N” value in the data set “native gel or EMSA [3]” was 2.

B6: 6xHis-IDH2 R140Q/K413Q-FLAG (acetyl-mimetic) (enzyme, human, UniProt P48735 40-452, looked up)
chain: T1 sequence (looked up) with K374Q
Consider B6, for which the “stoichiometry N” value in “native gel or EMSA [2]” is 2.

B7: 6xHis-IDH2 R140Q/K413R-FLAG (acetyl-deficient) (enzyme, human, UniProt P48735 40-452, looked up)
chain: T1 sequence (looked up) with K374R
Turning to B7, the “stoichiometry N” value in “native gel or EMSA [2]” turned out to be 2.
